US20200239593A1 (AIMM THERAPEUTICS B V, published 2020)
Blank lines part the entries; values can stand above or below the binder they belong to.

Legend:
snRNP200-flag construct = target: T1, snRNP200-flag construct (UniProt O75643 1-2136, limits assumed); assay: capture ELISA: antibody coated, snRNP200-flag lysate (3 ug/ml) captured, anti-flag HRP detection
T1 construct: mature; Used as lysate at 3 ug/ml, not purified; also called full-length snRNP200 with an N-terminal FLAG tag; not shown: N-terminal FLAG tag
Experimental: FIG. 20B. AML specific antibodies AT12-019, AT12-023, AT13-031 and AT13-037 or commercially available snRNP200-specific antibodies snRNP200 453 and snRNP200 454 were coated on an ELISA plate, incubated with a snRNP200-flag construct for capturing and with anti-flag HRP for detection.
HEK 293T cells were transfected with an expression vector containing the full-length open reading frame of snRNP200 with an N-terminal FLAG tag. At 2 days after transfection cells were harvested and lysed in lysis buffer containing protease inhibitors. This lysate was cleared and protein concentration was measured. AML specific antibodies AT12-019, AT12-023, AT13-031 and AT13-037 or commercially available snRNP200 specific antibodies (Bethyl labs) were then coated on an ELISA plate. The lysate was added at a concentration of 3 μg/ml for capturing. After extensive washing, captured snRNP200-flag was detected with a monoclonal mouse anti-flag HRP antibody (Sigma-Aldrich, clone M2).

[1] = target: T2, snRNP200 (endogenous, from THP-1 cells) (human, UniProt O75643 1-2136); assay: immunoprecipitation from THP-1 membrane lysate, Western blot with mouse-anti-human snRNP200
T2 construct: also called U5-snRNP
Experimental: FIG. 20A. THP-1 membrane lysate was incubated with AT12-023 and AT13-031, with the influenza-specific antibody AT10-002 or with marker alone.
THP-1 cells were lysed and precleared with an irrelevant antibody (in-house generated RSV antibody D25) and beads to remove non specific binding proteins. Precleared lysate was then incubated with bead-labeled AML-specific antibodies or with the influenza specific antibody AT10-002 as a negative control (3 hrs at 4° C.). Antibody-incubated lysates were washed five times, bound proteins were eluted from the THP-1 lysate and then run on an SDS-PAGE gel. Proteins were blotted and stained with Ponseau S to reveal total protein. The blot was blocked with BSA and incubated with mouse-anti-snRNP200 (Millipore, clone 3B6.1) or Rabbit-anti-HMGB1 (Abcam) for Western blot analysis. Intracelllar staining for snRNP200 was performed after fixing and permeabilizing THP-1 cells with methanol (Sigma) and permeabilization buffer containing triton X-100 (Sigma), EDTA (Gibco) and BSA (Roche), followed by incubation with rabbit-anti-human snRNP200 antibody (Sigma) overnight at 4° C.

T1 sequence (O75643 whole entry): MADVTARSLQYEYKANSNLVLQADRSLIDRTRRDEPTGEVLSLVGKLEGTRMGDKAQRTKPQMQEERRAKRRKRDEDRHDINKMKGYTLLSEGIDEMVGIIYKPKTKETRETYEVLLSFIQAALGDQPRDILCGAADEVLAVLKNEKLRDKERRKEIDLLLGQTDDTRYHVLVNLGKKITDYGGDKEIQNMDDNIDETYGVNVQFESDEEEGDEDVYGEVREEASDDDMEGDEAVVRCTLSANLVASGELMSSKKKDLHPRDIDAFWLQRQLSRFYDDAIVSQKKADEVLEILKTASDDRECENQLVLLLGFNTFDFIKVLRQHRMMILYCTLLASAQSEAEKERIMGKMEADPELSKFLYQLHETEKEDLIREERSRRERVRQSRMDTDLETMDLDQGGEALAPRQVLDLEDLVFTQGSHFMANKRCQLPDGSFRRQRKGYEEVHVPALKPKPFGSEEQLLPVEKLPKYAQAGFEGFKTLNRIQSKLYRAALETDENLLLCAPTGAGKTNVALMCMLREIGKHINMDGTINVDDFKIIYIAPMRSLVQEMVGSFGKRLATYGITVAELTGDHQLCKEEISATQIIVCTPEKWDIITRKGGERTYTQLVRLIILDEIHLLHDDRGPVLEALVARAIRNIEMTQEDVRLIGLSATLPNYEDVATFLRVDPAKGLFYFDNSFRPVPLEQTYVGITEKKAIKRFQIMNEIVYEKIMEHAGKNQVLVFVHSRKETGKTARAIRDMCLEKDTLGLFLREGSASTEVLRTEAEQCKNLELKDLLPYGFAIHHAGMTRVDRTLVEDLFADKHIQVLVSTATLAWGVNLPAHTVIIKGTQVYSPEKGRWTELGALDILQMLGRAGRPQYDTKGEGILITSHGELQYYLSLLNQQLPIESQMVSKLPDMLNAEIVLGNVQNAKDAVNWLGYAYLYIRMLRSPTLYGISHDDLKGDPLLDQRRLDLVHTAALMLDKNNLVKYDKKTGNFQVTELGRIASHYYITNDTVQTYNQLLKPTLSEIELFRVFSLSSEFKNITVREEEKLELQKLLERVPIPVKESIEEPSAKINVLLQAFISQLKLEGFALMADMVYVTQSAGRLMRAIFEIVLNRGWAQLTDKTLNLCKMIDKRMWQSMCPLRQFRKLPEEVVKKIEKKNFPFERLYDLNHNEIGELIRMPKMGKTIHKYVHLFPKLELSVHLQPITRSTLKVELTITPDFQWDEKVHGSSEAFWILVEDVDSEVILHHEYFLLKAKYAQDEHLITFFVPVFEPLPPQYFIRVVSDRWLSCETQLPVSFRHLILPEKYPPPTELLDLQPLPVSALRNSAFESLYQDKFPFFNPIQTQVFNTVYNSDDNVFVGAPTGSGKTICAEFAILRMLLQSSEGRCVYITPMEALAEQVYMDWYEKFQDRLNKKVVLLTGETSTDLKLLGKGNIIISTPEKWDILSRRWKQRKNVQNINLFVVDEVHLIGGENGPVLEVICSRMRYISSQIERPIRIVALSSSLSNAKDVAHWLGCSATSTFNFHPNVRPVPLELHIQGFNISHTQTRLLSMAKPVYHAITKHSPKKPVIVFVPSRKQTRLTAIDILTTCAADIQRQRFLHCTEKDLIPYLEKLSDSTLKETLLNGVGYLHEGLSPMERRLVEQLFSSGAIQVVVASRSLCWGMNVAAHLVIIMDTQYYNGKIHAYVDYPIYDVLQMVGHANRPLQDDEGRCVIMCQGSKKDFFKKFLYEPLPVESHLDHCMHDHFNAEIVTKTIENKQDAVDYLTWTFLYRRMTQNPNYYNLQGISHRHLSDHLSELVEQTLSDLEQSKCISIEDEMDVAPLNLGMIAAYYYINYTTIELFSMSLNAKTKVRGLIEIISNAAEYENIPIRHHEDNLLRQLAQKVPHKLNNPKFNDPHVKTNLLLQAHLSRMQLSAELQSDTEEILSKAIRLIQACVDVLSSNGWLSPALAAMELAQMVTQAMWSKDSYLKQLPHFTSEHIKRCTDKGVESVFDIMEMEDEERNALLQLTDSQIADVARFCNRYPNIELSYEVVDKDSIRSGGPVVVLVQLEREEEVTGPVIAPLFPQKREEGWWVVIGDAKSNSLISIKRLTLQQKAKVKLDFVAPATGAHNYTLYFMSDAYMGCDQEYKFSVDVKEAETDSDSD
T2 sequence (O75643 whole entry): as above

binding result (snRNP200-flag construct): no binding
B1: AT12-019 (antibody, IgG1, V domains shown)
VH: EVHLLESGGGLVQPGGSLRLSCAASGFTFSSYAMSWVRQAPGKGLEWVSTIRASGGSTSYADSVKGRFTISRDNSQSRLYLQMNSLTAEDTAVYYCAKSPAMIRGVRGGDYFDYWGQGTLVTVSS
VL: AIRLTQSPSSVSASTGDRVTITCRASQAFSSYLVWYQQKPGKAPNLLIYATSTLQGGVPSRFSGSGSGTDFTLTISNLQSEDFATYYCQQYYSYPPTFGQGTKLEIK
notes: Human antibody from AML patient donor 59; also called antibody AT12-019

binding result [1]: binds
B2: AT12-023 (antibody, V domains shown)
VH: QVQLQQWGAGLLKPSETLSLTCAVYGGSFSGYYWSWIRQPPGKGLEWIGEINHSGSTNYNPSLKSRVTISVDTSKNQFSLKLSSVTAADTAVYYCARGRSTSPLDYYYYYMDVWAKGTTVTVSS
VL: SSELTQDPAVSVALGQTVRITCQGDFLRSYYASWYQQKPGQAPVLVIFGKNKRPSGIPDRFSGSSSGNTASLTITGAQAEDEADYYCNSRDRSGNHLVFGGGTKLTVL
notes: Human antibody from AML patient donor 59; also called antibody AT12-023
